Experiments:
[1] = system: HeLa Kyoto; assay: solubility in G1/S (NP-40 vs SDS abundance) (log2 ratio); higher = more soluble; conditions: cell cycle stage: G1/S
[2] = system: HeLa Kyoto; assay: solubility change mitosis vs G1/S (difference of NP-40 vs SDS log2 ratios) (log2 ratio difference); higher = more soluble in mitosis
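Wherever solubility change mitosis vs G1/S (difference of NP-40 vs SDS log2 ratios) is given: synchronized HeLa Kyoto cells (double thymidine block for G1/S, nocodazole release for mitosis), protein amounts in NP-40 versus SDS lysates quantified by mass spectrometry, three biological replicates.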
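Wherever solubility in G1/S (NP-40 vs SDS abundance) is given: HeLa Kyoto cells arrested at G1/S by double thymidine block, proteins quantified by TMT10plex mass spectrometry in mild NP-40 versus SDS extracts, three biological replicates.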

Row | Sequence | solubility in G1/S (log2) [1] | solubility change mitosis (log2) [2]
1 | MSKLPRELTRDLERSLPAVASLGSSLSHSQSLSSHLLPPPEKRRAISDVRRTFCLFVTFDLLFISLLWIIELNTNTGIRKNLEQEIIQYNFKTSFFDIFVLAFFRFSGLLLGYAVLRLRHWWVIAVTTLVSSAFLIVKVILSELLSKGAFGYLLPIVSFVLAWLETWFLDFKVLPQEAEEERWYLAAQVAVARGPLLFSGALSEGQFYSPPESFAGSDNESDEEVAGKKSFSAQEREYIRQGKEATAVVDQILAQEENWKFEKNNEYGDTVYTIEVPFHGKTFILKTFLPCPAELVYQEVILQPERMVLWNKTVTACQILQRVEDNTLISYDVSAGAAGGVVSPRDFVNVRRIERRRDRYLSSGIATSHSAKPPTHKYVRGENGPGGFIVLKSASNPRVCTFVWILNTDLKGRLPRYLIHQSLAATMFEFAFHLRQRISELGARA [STARD3] | -0.0414 | -0.178
2 | MSLALRSELVVDKTKRKKRRELSEEQKQEIKDAFELFDTDKDEAIDYHELKVAMRALGFDVKKADVLKILKDYDREATGKITFEDFNEVVTDWILERDPHEEILKAFKLFDDDDSGKISLRNLRRVARELGENMSDEELRAMIEEFDKDGDGEINQEEFIAIMTGDI [CETN3] | 0.133 | 0.0873
3 | MSQGPPTGESSEPEAKVLHTKRLYRAVVEAVHRLDLILCNKTAYQEVFKPENISLRNKLRELCVKLMFLHPVDYGRKAEELLWRKVYYEVIQLIKTNKKHIHSRSTLECAYRTHLVAGIGFYQHLLLYIQSHYQLELQCCIDWTHVTDPLIGCKKPVSASGKEMDWAQMACHRCLVYLGDLSRYQNELAGVDTELLAERFYYQALSVAPQIGMPFNQLGTLAGSKYYNVEAMYCYLRCIQSEVSFEGAYGNLKRLYDKAAKMYHQLKKCETRKLSPGKKRCKDIKRLLVNFMYLQSLLQPKSSSVDSELTSLCQSVLEDFNLCLFYLPSSPNLSLASEDEEEYESGYAFLPDLLIFQMVIICLMCVHSLERAGSKQYSAAIAFTLALFSHLVNHVNIRLQAELEEGENPVPAFQSDGTDEPESKEPVEKEEEPDPEPPPVTPQVGEGRKSRKFSRLSCLRRRRHPPKVGDDSDLSEGFESDSSHDSARASEGSDSGSDKSLEGGGTAFDAETDSEMNSQESRSDLEDMEEEEGTRSPTLEPPRGRSEAPDSLNGPLGPSEASIASNLQAMSTQMFQTKRCFRLAPTFSNLLLQPTTNPHTSASHRPCVNGDVDKPSEPASEEGSESEGSESSGRSCRNERSIQEKLQVLMAEGLLPAVKVFLDWLRTNPDLIIVCAQSSQSLWNRLSVLLNLLPAAGELQESGLALCPEVQDLLEGCELPDLPSSLLLPEDMALRNLPPLRAAHRRFNFDTDRPLLSTLEESVVRICCIRSFGHFIARLQGSILQFNPEVGIFVSIAQSEQESLLQQAQAQFRMAQEEARRNRLMRDMAQLRLQLEVSQLEGSLQQPKAQSAMSPYLVPDTQALCHHLPVIRQLATSGRFIVIIPRTVIDGLDLLKKEHPGARDGIRYLEAEFKKGNRYIRCQKEVGKSFERHKLKRQDADAWTLYKILDSCKQLTLAQGAGEEDPSGMVTIITGLPLDNPSVLSGPMQAALQAAAHASVDIKNVLDFYKQWKEIG [SMG5] | -0.176 | -0.207
4 | MSRKISKESKKVNISSSLESEDISLETTVPTDDISSSEEREGKVRITRQLIERKELLHNIQLLKIELSQKTMMIDNLKVDYLTKIEELEEKLNDALHQKQLLTLRLDNQLAFQQKDASKYQELMKQEMETILLRQKQLEETNLQLREKAGDVRRNLRDFELTEEQYIKLKAFPEDQLSIPEYVSVRFYELVNPLRKEICELQVKKNILAEELSTNKNQLKQLTETYEEDRKNYSEVQIRCQRLALELADTKQLIQQGDYRQENYDKVKSERDALEQEVIELRRKHEILEASHMIQTKERSELSKEVVTLEQTVTLLQKDKEYLNRQNMELSVRCAHEEDRLERLQAQLEESKKAREEMYEKYVASRDHYKTEYENKLHDELEQIRLKTNQEIDQLRNASREMYERENRNLREARDNAVAEKERAVMAEKDALEKHDQLLDRYRELQLSTESKVTEFLHQSKLKSFESERVQLLQEETARNLTQCQLECEKYQKKLEVLTKEFYSLQASSEKRITELQAQNSEHQARLDIYEKLEKELDEIIMQTAEIENEDEAERVLFSYGYGANVPTTAKRRLKQSVHLARRVLQLEKQNSLILKDLEHRKDQVTQLSQELDRANSLLNQTQQPYRYLIESVRQRDSKIDSLTESIAQLEKDVSNLNKEKSALLQTKNQMALDLEQLLNHREELAAMKQILVKMHSKHSENSLLLTKTEPKHVTENQKSKTLNVPKEHEDNIFTPKPTLFTKKEAPEWSKKQKMKT [PIBF1] | 0.069 | 0.297
5 | MSRRPCSCALRPPRCSCSASPSAVTAAGRPRPSDSCKEESSTLSVKMKCDFNCNHVHSGLKLVKPDDIGRLVSYTPAYLEGSCKDCIKDYERLSCIGSPIVSPRIVQLETESKRLHNKENQHVQQTLNSTNEIEALETSRLYEDSGYSSFSLQSGLSEHEEGSLLEENFGDSLQSCLLQIQSPDQYPNKNLLPVLHFEKVVCSTLKKNAKRNPKVDREMLKEIIARGNFRLQNIIGRKMGLECVDILSELFRRGLRHVLATILAQLSDMDLINVSKVSTTWKKILEDDKGAFQLYSKAIQRVTENNNKFSPHASTREYVMFRTPLASVQKSAAQTSLKKDAQTKLSNQGDQKGSTYSRHNEFSEVAKTLKKNESLKACIRCNSPAKYDCYLQRATCKREGCGFDYCTKCLCNYHTTKDCSDGKLLKASCKIGPLPGTKKSKKNLRRL [FBXO5] | 0.273 | 0.249
6 | MSSEESYRAILRYLTNEREPYAPGTEGNVKRKIRKAAACYVVRGGTLYYQRRQRHRKTFAELEVVLQPERRRDLIEAAHLGPGGTHHTRHQTWHYLSKTYWWRGILKQVKDYIKQCSKCQEKLDRSRPISDVSEMLEELGLDLESGEESNESEDDLSNFTSSPTTASKPAKKKPVSKHELVFVDTKGVVKRSSPKHCQAVLKQLNEQRLSNQFCDVTLLIEGEEYKAHKSVLSANSEYFRDLFIEKGAVSSHEAVVDLSGFCKASFLPLLEFAYTSVLSFDFCSMADVAILARHLFMSEVLEICESVHKLMEEKQLTVYKKGEVQTVASTQDLRVQNGGTAPPVASSEGTTTSLPTELGDCEIVLLVNGELPEAEQNGEVGRQPEPQVSSEAESALSSVGCIADSHPEMESVDLITKNNQTELETSNNRENNTVSNIHPKLSKENVISSSPEDSGMGNDISAEDICAEDIPKHRQKVDQPLKDQENLVASTAKTDFGPDDDTYRSRLRQRSVNEGAYIRLHKGMEKKLQKRKAVPKSAVQQVAQKLVQRGKKMKQPKRDAKENTEEASHKCGECGMVFQRRYALIMHKLKHERARDYKCPLCKKQFQYSASLRAHLIRHTRKDAPSSSSSNSTSNEASGTSSEKGRTKREFICSICGRTLPKLYSLRIHMLKHTGVKPHACQVCGKTFIYKHGLKLHQSLHQSQKQFQCELCVKSFVTKRSLQEHMSIHTGESKYLCSVCGKSFHRGSGLSKHFKKHQPKPEVRGYHCTQCEKSFFEARDLRQHMNKHLGVKPFQCQFCDKCYSWKKDWYSHVKSHSVTEPYRCNICGKEFYEKALFRRHVKKATHGKKGRAKQNLERVCEKCGRKFTQLREYRRHMNNHEGVKPFECLTCGVAWADARSLKRHVRTHTGERPYVCPVCSEAYIDARTLRKHMTKFHRDYVPCKIMLEKDTLQFHNQGTQVAHAVSILTAGMQEQESSGPQELETVVVTGETMEALEAVAATEEYPSVSTLSDQSIMQVVNYVLAQQQGQKLSEVAEAIQTVKVEVAHISGGE [ZBTB11] | -0.621 | 0.267
7 | MSSGLWSQEKVTSPYWEERIFYLLLQECSVTDKQTQKLLKVPKGSIGQYIQDRSVGHSRIPSAKGKKNQIGLKILEQPHAVLFVDEKDVVEINEKFTELLLAITNCEERFSLFKNRNRLSKGLQIDVGCPVKVQLRSGEEKFPGVVRFRGPLLAERTVSGIFFGVELLEEGRGQGFTDGVYQGKQLFQCDEDCGVFVALDKLELIEDDDTALESDYAGPGDTMQVELPPLEINSRVSLKVGETIESGTVIFCDVLPGKESLGYFVGVDMDNPIGNWDGRFDGVQLCSFACVESTILLHINDIIPALSESVTQERRPPKLAFMSRGVGDKGSSSHNKPKATGSTSDPGNRNRSELFYTLNGSSVDSQPQSKSKNTWYIDEVAEDPAKSLTEISTDFDRSSPPLQPPPVNSLTTENRFHSLPFSLTKMPNTNGSIGHSPLSLSAQSVMEELNTAPVQESPPLAMPPGNSHGLEVGSLAEVKENPPFYGVIRWIGQPPGLNEVLAGLELEDECAGCTDGTFRGTRYFTCALKKALFVKLKSCRPDSRFASLQPVSNQIERCNSLAFGGYLSEVVEENTPPKMEKEGLEIMIGKKKGIQGHYNSCYLDSTLFCLFAFSSVLDTVLLRPKEKNDVEYYSETQELLRTEIVNPLRIYGYVCATKIMKLRKILEKVEAASGFTSEEKDPEEFLNILFHHILRVEPLLKIRSAGQKVQDCYFYQIFMEKNEKVGVPTIQQLLEWSFINSNLKFAEAPSCLIIQMPRFGKDFKLFKKIFPSLELNITDLLEDTPRQCRICGGLAMYECRECYDDPDISAGKIKQFCKTCNTQVHLHPKRLNHKYNPVSLPKDLPDWDWRHGCIPCQNMELFAVLCIETSHYVAFVKYGKDDSAWLFFDSMADRDGGQNGFNIPQVTPCPEVGEYLKMSLEDLHSLDSRRIQGCARRLLCDAYMCMYQSPTMSLYK | 0.0441 | -0.178
8 | MSSIKHLVYAVIRFLREQSQMDTYTSDEQESLEVAIQCLETVFKISPEDTHLAVSQPLTEMFTSSFCKNDVLPLSNSVPEDVGKADQLKDEGNNHMKEENYAAAVDCYTQAIELDPNNAVYYCNRAAAQSKLGHYTDAIKDCEKAIAIDSKYSKAYGRMGLALTALNKFEEAVTSYQKALDLDPENDSYKSNLKIAEQKLREVSSPTGTGLSFDMASLINNPAFISMAASLMQNPQVQQLMSGMMTNAIGGPAAGVGGLTDLSSLIQAGQQFAQQIQQQNPELIEQLRNHIRSRSFSSSAEEHS [SGTB] | 0.092 | 0.321
9 | MSSRLGAVPATSGPTTFKQQRSTRIVGAKNSRTQCSIKDNSFQYTIPHDDSLSGSSSASSCEPVSDFPASFRKSTYWMKMRRIKPAATSHVEGSGGVSAKGKRKPRQEEDEDYREFPQKKHKLYGRKQRPKTQPNPKSQARRIRKEPPVYAAGSLEEQWYLEIVDKGSVSCPTCQAVGRKTIEGLKKHMENCKQEMFTCHHCGKQLRSLAGMKYHVMANHNSLPILKAGDEIDEPSERERLRTVLKRLGKLRCMRESCSSSFTSIMGYLYHVRKCGKGAAELEKMTLKCHHCGKPYRSKAGLAYHLRSEHGPISFFPESGQPECLKEMNLESKSGGRVQRRSAKIAVYHLQELASAELAKEWPKRKVLQDLVPDDRKLKYTRPGLPTFSQEVLHKWKTDIKKYHRIQCPNQGCEAVYSSVSGLKAHLGSCTLGNFVAGKYKCLLCQKEFVSESGVKYHINSVHAEDWFVVNPTTTKSFEKLMKIKQRQQEEEKRRQQHRSRRSLRRRQQPGIELPETELSLRVGKDQRRNNEELVVSASCKEPEQEPVPAQFQKVKPPKTNHKRGRK [ZNF512] | -2.03 | 1.4
10 | MSTFRQEDVEDHYEMGEELGSGQFAIVRKCRQKGTGKEYAAKFIKKRRLSSSRRGVSREEIEREVNILREIRHPNIITLHDIFENKTDVVLILELVSGGELFDFLAEKESLTEDEATQFLKQILDGVHYLHSKRIAHFDLKPENIMLLDKNVPNPRIKLIDFGIAHKIEAGNEFKNIFGTPEFVAPEIVNYEPLGLEADMWSIGVITYILLSGASPFLGETKQETLTNISAVNYDFDEEYFSNTSELAKDFIRRLLVKDPKRRMTIAQSLEHSWIKAIRRRNVRGEDSGRKPERRRLKTTRLKEYTIKSHSSLPPNNSYADFERFSKVLEEAAAAEEGLRELQRSRRLCHEDVEALAAIYEEKEAWYREESDSLGQDLRRLRQELLKTEALKRQAQEEAKGALLGTSGLKRRFSRLENRYEALAKQVASEMRFVQDLVRALEQEKLQGVECGLR [DAPK3] | -0.721 | -0.0326

Reference: the supplement of paper PMC5998384
